Reference: patent US20070049518A1, “Novel method of treatment of inflammatory skin conditions” (priority 2005, published 2007)
Read-outs that look alike come from different tables or passages of the source.

How the values were obtained:
[1] = tested on: proenzyme of human rheumatoid synovial fibroblast collagenase (proMMP-1); format: biochemical; conditions: aureolysin alone±APMA
Experimental: (§1) Collagenase activity in the samples was then determined by incubation at 25° C. in TCNB containing 0.1 μg/ml (pro)MMP-1 and 0.16 mg/ml porcine type I collagen (MD Biosciences).

[2] = molecular target: T1, proenzyme of human rheumatoid synovial fibroblast collagenase (proMMP-1) (Homo sapiens, UniProt P03956); format: biochemical; conditions: for α1-chain ¾ - length product: aureolysin 3 μg/ml and/or 1 mM APMA
T1 construct: the proenzyme of human rheumatoid synovial fibroblast collagenase (Calbiochem); purchased Calbiochem; host or cells: human rheumatoid synovial fibroblasts (as the product's name says)
T1 sequence (P03956 20-469): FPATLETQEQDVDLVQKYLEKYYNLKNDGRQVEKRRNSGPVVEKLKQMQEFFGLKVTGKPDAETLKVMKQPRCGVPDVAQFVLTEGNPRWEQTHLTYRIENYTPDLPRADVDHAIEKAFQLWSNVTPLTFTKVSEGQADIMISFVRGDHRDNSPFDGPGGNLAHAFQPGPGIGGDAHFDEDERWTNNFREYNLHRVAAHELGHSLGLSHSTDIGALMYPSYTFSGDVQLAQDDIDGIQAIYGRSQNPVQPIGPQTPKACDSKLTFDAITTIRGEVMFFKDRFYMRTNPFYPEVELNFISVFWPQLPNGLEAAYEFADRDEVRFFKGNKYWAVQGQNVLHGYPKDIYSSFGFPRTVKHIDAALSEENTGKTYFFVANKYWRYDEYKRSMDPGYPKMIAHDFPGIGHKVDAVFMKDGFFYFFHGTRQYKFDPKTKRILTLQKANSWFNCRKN
Experimental: as §1

[3] = tested on: Human skin epidermal keratinocytes; assay: Keratinocyte activation, IL-8 production; format: cell-based; conditions: 48 hours, aureolysin 50 μg/ml
From the text: Activated keratinocytes produce IL-8, a proinflammatory chemokine. Many bacterial products cause the activation of keratinocytes. Aureolysin may be evaluated for its effects on IL-8 production by keratinocytes. Human skin epidermal keratinocytes (TCS Cellworks) are maintained as per instructions. Proliferating cultures are trypsinised, harvested, treated with a trypsin inhibitor and resuspended in growth medium at approximately 50,000 cells/well, to provide confluent monolayers in 96 well plates. Cells are incubated overnight at 37° C. at 5% CO2 to allow recovery, the spent medium aspirated from the wells and replaced with fresh growth medium. The cells are incubated at 37° C. at 5% CO2 for a further 24 or 48 hours with aureolysin or buffer control.
The supernatants are removed from each well and the concentration of IL-8 is determined using a human IL-8 ELISA development kit from R&D systems (Catalog Number: DY208) using the manufacturers instructions.
In these experiments, the cells are incubated at 37° C. at 5% CO2 for 48 hours with aureolysin or buffer control. Poly IC and lipoteichoic acid (LTA), which stimulate IL-8 production in keratinocytes were used as positive controls.

[4] = tested on: single chain pro-uPA; assay: Activation of pro-uPA by aureolysin; format: biochemical; conditions: Expt. 1, 2.5 h

aureolysin: metalloprotease (EC 3.4.24.29) secreted by Staphylococcus aureus, single chain of 301 amino acids
collagenase activity of control incubations without proMMP-1 (in words) [1]: no activity
α1-chain ¾ - length product ([2]; Time 0 h): 0 arbitrary units
α1-chain ¾ - length product ([2]; Time 0.5 h): 1709 arbitrary units
α1-chain ¾ - length product ([2]; Time 1 h): 3726 arbitrary units
α1-chain ¾ - length product ([2]; Time 1.5 h): 5115 arbitrary units
α1-chain ¾ - length product ([2]; Time 2 h): 8742 arbitrary units
α1-chain ¾ - length product ([2]; Time 3 h): 12718 arbitrary units
α1-chain ¾ - length product ([2]; Time 4 h): 16882 arbitrary units
α1-chain ¾ - length product ([2]; Time 5 h): 17558 arbitrary units
α1-chain ¾ - length product ([2]; Time 6 h): 19436 arbitrary units
Relative rate of collagen cleavage ([2]; relative to untreated control (MMP-1 alone = 1)): 3
IL-8 ± SE [3]: 687 pg/mL
IL-8 ± SE ([3]; listed as Aureolysin): 687 ± 0.7 pg/mL
Urokinase activity after pro-uPA activation ([4]; aureolysin 0.1 μg/ml, MES pH 5.6): 2.31 A405/0.5 h/μg
Urokinase activity after pro-uPA activation ([4]; aureolysin 0.1 μg/ml, Tris-HCl pH 7.5): 0.65 A405/0.5 h/μg
Urokinase activity after pro-uPA activation ([4]; aureolysin 0.3 μg/ml, MES pH 5.6): 3.76 A405/0.5 h/μg
Urokinase activity after pro-uPA activation ([4]; aureolysin 0.3 μg/ml, Tris-HCl pH 7.5): 1.43 A405/0.5 h/μg
Urokinase activity after pro-uPA activation ([4]; aureolysin 1 μg/ml, MES pH 5.6): 4.68 A405/0.5 h/μg
Urokinase activity after pro-uPA activation ([4]; aureolysin 1 μg/ml, Tris-HCl pH 7.5): 3.29 A405/0.5 h/μg
